Reference: patent publication US20250327069A1 (CORNELL UNIVERSITY, published 2025)

Assays:
[1] = system: Tn6900 Cascade-TniQ wild type (with TnsABC) (Aeromonas salmonicida S44); assay: cell_activity; settings: CC PAM in transposition screen; about 3-fold
[2] = system: Tn6900 Cascade-TniQ, Cas8/5 A247Q+S248N Cas8/5 A247Q,S248N (Aeromonas salmonicida S44); assay: cell_activity; settings: over half of transposition events at PAMs with -1 C
[3] = system: I-F1 PA14 Csy complex with Cas2/3 (Pseudomonas aeruginosa PA14); assay: cell_activity; settings: CC PAM; interference assay, completely depleted
[4] = molecular target: the molecule itself; assay: cryo-EM structure of the Cascade-TniQ full R-loop complex
[5] = molecular target: T1, Cas8/5 protein of the I-F3b Tn6900 Cascade (Aeromonas salmonicida S44 (Tn6900 …)); assay: as above
T1 chain: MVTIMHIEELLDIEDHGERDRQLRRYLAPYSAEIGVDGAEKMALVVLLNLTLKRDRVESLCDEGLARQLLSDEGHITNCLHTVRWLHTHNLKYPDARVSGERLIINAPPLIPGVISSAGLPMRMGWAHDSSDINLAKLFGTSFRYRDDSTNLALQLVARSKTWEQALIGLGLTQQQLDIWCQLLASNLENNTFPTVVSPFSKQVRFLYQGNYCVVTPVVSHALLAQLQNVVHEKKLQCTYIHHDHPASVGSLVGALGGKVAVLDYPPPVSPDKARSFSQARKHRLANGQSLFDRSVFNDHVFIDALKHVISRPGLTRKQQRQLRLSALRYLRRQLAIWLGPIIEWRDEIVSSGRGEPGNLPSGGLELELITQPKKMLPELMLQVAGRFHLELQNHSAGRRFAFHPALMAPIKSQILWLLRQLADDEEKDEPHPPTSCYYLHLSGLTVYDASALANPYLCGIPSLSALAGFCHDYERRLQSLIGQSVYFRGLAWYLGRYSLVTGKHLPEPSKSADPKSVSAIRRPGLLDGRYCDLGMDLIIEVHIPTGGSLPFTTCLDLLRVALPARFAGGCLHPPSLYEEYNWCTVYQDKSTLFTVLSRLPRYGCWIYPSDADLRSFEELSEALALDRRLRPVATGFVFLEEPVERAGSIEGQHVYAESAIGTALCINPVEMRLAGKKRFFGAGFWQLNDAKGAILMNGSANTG

Tn6900 Cascade-TniQ, Cas8/5 A247Q+S248N Cas8/5 A247Q,S248N (Aeromonas salmonicida S44), sequence (chain, as listed by the source A247Q S248N A247Q S248N, chain 2 of 2): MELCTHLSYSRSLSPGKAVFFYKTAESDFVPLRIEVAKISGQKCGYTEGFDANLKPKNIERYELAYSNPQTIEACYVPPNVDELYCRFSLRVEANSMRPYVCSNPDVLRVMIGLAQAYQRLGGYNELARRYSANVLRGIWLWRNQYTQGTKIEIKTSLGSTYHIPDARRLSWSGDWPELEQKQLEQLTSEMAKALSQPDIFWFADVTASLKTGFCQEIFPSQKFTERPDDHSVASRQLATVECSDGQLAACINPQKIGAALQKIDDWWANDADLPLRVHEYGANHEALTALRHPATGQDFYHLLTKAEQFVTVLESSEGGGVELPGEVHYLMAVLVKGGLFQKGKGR
Tn6900 Cascade-TniQ, Cas8/5 A247Q+S248N Cas8/5 A247Q,S248N (Aeromonas salmonicida S44), sequence (chain, as listed by the source A247Q S248N A247Q S248N, chain 3 of 2): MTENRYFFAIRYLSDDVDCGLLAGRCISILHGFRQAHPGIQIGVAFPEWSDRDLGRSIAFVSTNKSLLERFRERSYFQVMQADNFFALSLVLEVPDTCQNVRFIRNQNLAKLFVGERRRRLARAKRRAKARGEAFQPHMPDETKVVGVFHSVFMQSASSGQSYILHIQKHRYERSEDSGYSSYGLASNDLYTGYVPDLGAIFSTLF
Tn6900 Cascade-TniQ wild type (with TnsABC) (Aeromonas salmonicida S44), sequence (chain, as listed by the source, chain 2 of 2): as the sequence (chain, as listed by the source A247Q S248N A247Q S248N, chain 2 of 2) above
Tn6900 Cascade-TniQ wild type (with TnsABC) (Aeromonas salmonicida S44), sequence (chain, as listed by the source, chain 3 of 2): as the sequence (chain, as listed by the source A247Q S248N A247Q S248N, chain 3 of 2) above

Q: Which binding signal (fold enrichment) [1] does the source give for “atypical crRNA ffs (60 nt) ; CC-PAM ffs target” here?
A: 3

Q: Which share of transposition events at PAMs with -1 C (% of events with C at -1) [2] does the source give for “atypical crRNA ffs (60 nt) ; NN-PAM ffs plasmid pool” here?
A: > 50

Q: With PA14 crRNA-ffs ; CC-PAM ffs target as the molecule, how does the enrichment after interference (depletion) (enrichment (depletion)) [3] read?
A: < 0.005

B1: TniQ subunit (monomer) of the TniQ homo-dimer (other)
chain: MHLLVRPEPFADEALESYFLRLSQENGFERYRIFSGSVQDWLHTTDHAAAGAFPLELSRLNIFHASRSSGLRVRALQLVDRLTDGAPFRLLQLALCHSAISFGNHYKAVHRSGVDIPLSFIRVHQIPCCPDCLRESAYVRQCWHFKPYVGCHRHGGRLIYSCPACGESLNYLASESINHCQCGFDLRTASTVPAQPDEIQLSALAYGCSFESSNPLLAIGSLSARFGALYWYQQRYLSDHEAVRDDRALTKAIGHFTAWPDAFWRELQQMVDDALVRQTKPLNHTDFVDVFGSVVADCRQIPMRNTGQNFILKNLIGFLTDLVARHPQCRVANVGDLLLSAVDAATLLSTSVEQVRRLHHEGFLPLSIRPASRNTVSPHRAVFHLRHVVELRQARMQSHHDHSSTYLPAW
notes: One chain of the dimer, entered to record the self-association of TniQ; also called TniQ.1; TniQ.2; not shown: His6 tag named only in the plasmid name (pCOLADuet-1-His6-tniQ)
Q: Does B1 bind [4]?
A: binds

B2: TniQ transposition protein of the I-F3b element Tn6900 (Aeromonas salmonicida S44), homo-dimer as associated with Cascade (other)
chain: B1 chain
notes: Expressed in E. coli together with Cascade and purified as the Cascade-TniQ complex over Ni-NTA through the His6 tag on TniQ; also called His6-TniQ; TniQ dimer; not shown: His6 tag named only in the plasmid name (pCOLADuet-1-His6-tniQ)
Q: Does B2 bind [5]?
A: binds
